For one molecule, Kd results are on record in patent US20190338048A1 (published 2019).

For assay [1], the target named is His-tagged Influenza B Hemagglutinin (B/Brisbane/60/2008) (Influenza B (B/Brisbane/60/2008)). The experiment in a line: SPR.
Assay [2] deals with T1, His-tagged recombinant human CD-19 (human, UniProt P15391 20-291, limits assumed).
T1 sequence (looked up): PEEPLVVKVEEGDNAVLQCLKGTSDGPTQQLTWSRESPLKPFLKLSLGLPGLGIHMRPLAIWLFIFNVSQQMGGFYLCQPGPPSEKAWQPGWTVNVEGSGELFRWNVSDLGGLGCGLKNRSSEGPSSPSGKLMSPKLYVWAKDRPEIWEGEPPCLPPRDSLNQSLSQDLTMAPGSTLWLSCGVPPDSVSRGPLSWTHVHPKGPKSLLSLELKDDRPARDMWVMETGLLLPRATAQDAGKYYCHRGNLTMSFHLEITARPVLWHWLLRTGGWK
Briefly: SPR. For orientation: In SPR one partner is held on a chip, and binding of the other changes the refractive index at the surface.

B1: Design 2816 bispecific antibody, System C (CR8071 H1/L1 & SGN-CD19a H2/L2) (bispecific antibody)
chain 1: QVQLVQSGAEVKKPGASVRVSCRASGYIFTESGITWVRQAPGQGLEWMGWISGYSGDTKYAQKLQGRVTMTKDTSTTTAYMELRSLRYDDTAVYYCARDVQYSGSYLGAYYFDYWSPGTLVTVSSASTKGPSVFPLAPSSKSTSGGTAALGCLVKDYFPEPVTVSWNSGALTSGVHTFPAVLKSSGLYSLSSVVTVPSSSLGTQTYICNVNHKPSNTKVDKKVEPKSCDKTHTCPPCPAPELLGGPSVFLFPPKPKDTLMISRTPEVTCVVVDVSHEDPEVKFNWYVDGVEVHNAKTKPREEQYNSTYRVVSVLTVLHQDWLNGKEYKCKVSNKALPAPIEKTISKAKGQPREPQVYVYPPSRDELTKNQVSLTCLVKGFYPSDIAVEWESNGQPENNYKTTPPVLDSDGSFALVSKLTVDKSRWQQGNVFSCSVMHEALHNHYTQKSLSLSPG
chain 2: not shown
chain 3: not shown
chain 4: EIVLTQSPATLSLSPGERATLSCSASSSVSYMHWYQQKPGQAPRLLIYDTSKLASGIPARFSGSGSGTDFTLTISSLEPEDFAVYYCFQGSVYPFTFGQGTKLEIKRTVAAPSVFIFPPSDERLKSGTASVVCLLNNFYPREAKVQWKVDNALQSGNSKESVTEQDSKDSTYSLSSRLTLSKADYEKHKVYACEVTHQGLSSPVTKSFNRGEC
The term Kd denotes a measure of binding affinity in units of concentration. Turning to B1, the Kd in assay [1] stood at 0.00042 µM; in assay [2], 0.281 µM.
